This is an account of results in patent US20140072613A1, “Compositions and Methods for Treating Cutaneous Scarring” (priority 2012, published 2014).

What all share (assay): biochemical
Common to all, as to assay type: biochemical

In test [1] the target is 266 human kinases (Homo sapiens, UniProt O75914). The note with it: PAK3(h); 100 μM. The method in brief:
(§1)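 Steps: kinase transfers radiolabelled phosphate from ATP onto a positively charged substrate; the substrate is trapped on a negatively charged filter; bound radioactivity is counted by scintillation and compared with uninhibited (100%) activity.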

Test [2] deals with 266 human kinases (Homo sapiens, UniProt P28482). The note with it: MAPK2(h); 100 μM. The method in brief: as §1
266 human kinases (Homo sapiens, UniProt P28482), sequence (P28482 whole entry): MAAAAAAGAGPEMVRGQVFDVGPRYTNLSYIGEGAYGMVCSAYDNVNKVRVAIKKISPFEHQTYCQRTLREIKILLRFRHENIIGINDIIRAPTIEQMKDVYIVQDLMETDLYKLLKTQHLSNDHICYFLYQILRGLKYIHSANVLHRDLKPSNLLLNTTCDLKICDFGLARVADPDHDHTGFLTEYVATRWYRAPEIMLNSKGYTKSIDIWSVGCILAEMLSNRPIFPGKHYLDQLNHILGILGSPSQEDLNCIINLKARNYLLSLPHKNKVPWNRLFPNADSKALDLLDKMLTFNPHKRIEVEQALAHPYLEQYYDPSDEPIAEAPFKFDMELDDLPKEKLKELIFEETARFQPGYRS
The target in test [3] is 266 human kinases (Homo sapiens, UniProt P10721, V560G). The conditions noted are these: cKit(V560G)(h); 100 μM. The method in brief:
as §1

The target in test [4] is 266 human kinases (Homo sapiens, UniProt Q15349). The conditions noted are these: Rsk3(h); 100 μM. The method in brief: as §1
266 human kinases (Homo sapiens, UniProt Q15349), sequence (Q15349 whole entry): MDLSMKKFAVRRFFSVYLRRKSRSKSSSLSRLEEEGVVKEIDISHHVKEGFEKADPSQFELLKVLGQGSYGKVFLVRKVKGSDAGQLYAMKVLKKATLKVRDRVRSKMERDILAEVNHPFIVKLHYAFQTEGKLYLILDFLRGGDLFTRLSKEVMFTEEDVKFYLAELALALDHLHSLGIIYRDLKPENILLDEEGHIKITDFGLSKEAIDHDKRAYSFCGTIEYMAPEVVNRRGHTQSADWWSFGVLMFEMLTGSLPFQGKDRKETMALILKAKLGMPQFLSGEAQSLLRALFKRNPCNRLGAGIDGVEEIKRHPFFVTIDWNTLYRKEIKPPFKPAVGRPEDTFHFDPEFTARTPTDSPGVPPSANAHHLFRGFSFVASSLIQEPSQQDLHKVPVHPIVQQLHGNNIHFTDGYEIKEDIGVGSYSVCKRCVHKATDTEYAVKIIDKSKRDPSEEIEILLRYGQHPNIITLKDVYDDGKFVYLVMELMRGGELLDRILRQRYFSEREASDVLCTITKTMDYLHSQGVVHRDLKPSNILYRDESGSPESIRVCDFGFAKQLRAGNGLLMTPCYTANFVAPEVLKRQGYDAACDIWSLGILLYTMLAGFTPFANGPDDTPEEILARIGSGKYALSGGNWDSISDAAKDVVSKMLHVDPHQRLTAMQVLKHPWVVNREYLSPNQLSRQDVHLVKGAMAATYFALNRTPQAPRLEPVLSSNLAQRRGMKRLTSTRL
In test [5] the target is T1, 266 human kinases (Homo sapiens, UniProt O00141).
T1 sequence (O00141 1-431): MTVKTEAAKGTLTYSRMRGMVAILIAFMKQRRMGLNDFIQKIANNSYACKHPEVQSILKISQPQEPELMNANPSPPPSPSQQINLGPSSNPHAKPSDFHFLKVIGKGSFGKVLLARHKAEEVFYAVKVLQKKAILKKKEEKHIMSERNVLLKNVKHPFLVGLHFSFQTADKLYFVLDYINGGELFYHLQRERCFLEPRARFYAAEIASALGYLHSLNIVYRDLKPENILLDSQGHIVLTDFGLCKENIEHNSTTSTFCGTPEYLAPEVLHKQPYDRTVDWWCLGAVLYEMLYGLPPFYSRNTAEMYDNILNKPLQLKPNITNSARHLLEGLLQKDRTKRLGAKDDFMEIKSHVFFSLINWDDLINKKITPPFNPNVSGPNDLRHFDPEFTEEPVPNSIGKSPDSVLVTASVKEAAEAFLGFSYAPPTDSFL
The conditions noted are these: SGK(h); 100 μM. The method in brief: as §1

Test [6] concerns the target 266 human kinases (Homo sapiens, UniProt Q86Z02). The conditions noted are these: HIPK1(h); 100 μM. The method in brief: as §1
Test [7] has as its target T2, 266 human kinases (Homo sapiens, UniProt Q7L7X3).
T2 sequence (Q7L7X3 1-1001): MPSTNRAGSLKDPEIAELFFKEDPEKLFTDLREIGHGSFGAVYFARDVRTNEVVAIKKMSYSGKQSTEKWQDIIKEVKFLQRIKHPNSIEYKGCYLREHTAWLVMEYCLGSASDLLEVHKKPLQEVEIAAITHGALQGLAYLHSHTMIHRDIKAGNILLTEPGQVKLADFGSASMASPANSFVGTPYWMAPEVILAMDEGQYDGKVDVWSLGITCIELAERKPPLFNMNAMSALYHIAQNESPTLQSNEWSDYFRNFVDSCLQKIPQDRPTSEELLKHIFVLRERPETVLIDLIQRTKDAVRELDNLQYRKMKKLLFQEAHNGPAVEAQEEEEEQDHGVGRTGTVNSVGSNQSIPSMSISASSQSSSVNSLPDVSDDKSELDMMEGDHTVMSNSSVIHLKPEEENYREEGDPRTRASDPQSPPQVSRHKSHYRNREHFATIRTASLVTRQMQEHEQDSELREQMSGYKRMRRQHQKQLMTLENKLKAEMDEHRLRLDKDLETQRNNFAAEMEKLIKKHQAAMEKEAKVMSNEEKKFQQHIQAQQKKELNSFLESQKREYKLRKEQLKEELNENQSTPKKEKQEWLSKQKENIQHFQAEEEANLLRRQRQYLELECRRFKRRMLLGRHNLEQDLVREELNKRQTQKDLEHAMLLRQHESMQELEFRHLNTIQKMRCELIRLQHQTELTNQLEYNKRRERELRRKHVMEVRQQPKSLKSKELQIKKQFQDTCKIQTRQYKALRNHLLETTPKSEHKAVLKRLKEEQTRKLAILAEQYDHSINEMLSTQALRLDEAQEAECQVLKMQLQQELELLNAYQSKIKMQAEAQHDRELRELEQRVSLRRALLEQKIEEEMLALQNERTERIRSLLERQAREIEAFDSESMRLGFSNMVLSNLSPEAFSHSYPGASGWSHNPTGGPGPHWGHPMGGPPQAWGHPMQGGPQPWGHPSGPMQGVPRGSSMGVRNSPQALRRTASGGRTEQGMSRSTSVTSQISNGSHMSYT
The conditions noted are these: TAO1(h); 100 μM. The method in brief:
as §1

Test [8] addresses T3, 266 human kinases (Homo sapiens, UniProt Q9H2K8).
T3 sequence (Q9H2K8 1-898): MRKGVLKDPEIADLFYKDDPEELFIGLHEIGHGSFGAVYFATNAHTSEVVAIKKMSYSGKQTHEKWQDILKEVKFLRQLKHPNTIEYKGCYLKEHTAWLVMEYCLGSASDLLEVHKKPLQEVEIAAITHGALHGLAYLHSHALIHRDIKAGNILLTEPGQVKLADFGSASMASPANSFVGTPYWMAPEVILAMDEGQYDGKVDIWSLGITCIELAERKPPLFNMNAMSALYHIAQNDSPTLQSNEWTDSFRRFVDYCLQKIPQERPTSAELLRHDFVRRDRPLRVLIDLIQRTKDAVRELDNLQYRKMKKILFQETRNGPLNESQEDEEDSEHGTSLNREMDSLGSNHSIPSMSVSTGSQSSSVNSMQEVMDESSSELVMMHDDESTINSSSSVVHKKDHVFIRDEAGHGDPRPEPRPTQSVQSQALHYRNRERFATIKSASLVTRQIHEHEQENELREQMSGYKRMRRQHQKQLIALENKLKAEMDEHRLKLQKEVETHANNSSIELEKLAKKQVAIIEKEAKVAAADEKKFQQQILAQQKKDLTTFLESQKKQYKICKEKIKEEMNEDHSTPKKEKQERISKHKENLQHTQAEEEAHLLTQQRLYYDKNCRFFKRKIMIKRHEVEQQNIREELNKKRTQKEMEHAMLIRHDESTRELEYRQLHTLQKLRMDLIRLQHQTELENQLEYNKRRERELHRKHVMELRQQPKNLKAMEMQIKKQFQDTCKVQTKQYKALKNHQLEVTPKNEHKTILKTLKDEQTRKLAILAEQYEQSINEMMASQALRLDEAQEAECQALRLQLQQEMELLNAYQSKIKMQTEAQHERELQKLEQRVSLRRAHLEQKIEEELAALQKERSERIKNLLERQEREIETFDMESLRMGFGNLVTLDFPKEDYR
The note with it: TAO3(h); 100 μM. A digest of the protocol: as §1

Test [9] addresses 266 human kinases (Homo sapiens, UniProt Q16832). The conditions noted are these: DDR2(h); 100 μM. The method in brief:
as §1

266 human kinases (Homo sapiens, UniProt Q86Z02), sequence (Q86Z02 whole entry): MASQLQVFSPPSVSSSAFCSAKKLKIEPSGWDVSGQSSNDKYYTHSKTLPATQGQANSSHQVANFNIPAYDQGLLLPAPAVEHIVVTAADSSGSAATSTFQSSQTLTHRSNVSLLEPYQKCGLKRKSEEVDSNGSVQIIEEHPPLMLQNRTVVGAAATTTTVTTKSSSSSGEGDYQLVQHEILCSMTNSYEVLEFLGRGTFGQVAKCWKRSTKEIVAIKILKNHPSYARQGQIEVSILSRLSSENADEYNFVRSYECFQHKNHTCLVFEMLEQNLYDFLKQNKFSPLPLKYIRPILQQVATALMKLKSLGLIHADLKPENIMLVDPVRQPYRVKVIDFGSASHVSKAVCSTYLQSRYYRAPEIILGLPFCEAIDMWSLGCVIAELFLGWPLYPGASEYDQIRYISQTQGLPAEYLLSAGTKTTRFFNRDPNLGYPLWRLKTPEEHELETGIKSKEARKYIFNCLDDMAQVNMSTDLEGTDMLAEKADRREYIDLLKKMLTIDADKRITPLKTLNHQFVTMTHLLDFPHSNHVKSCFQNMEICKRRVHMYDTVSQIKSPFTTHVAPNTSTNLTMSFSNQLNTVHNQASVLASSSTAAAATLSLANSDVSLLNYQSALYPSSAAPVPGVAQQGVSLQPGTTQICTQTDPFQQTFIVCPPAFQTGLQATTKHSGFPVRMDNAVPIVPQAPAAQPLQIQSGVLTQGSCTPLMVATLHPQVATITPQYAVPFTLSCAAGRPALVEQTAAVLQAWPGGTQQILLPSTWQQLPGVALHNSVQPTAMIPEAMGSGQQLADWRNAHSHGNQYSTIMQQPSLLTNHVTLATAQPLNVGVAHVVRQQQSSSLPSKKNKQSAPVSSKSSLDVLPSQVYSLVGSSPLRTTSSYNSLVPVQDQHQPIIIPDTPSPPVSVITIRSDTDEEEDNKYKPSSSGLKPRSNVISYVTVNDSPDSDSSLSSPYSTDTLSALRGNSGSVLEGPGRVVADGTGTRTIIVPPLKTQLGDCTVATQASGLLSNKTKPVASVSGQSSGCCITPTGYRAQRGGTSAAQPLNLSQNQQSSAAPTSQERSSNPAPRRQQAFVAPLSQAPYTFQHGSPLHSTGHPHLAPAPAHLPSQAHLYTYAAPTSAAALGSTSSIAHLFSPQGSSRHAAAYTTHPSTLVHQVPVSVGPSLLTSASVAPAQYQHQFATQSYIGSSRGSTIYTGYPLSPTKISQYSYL
266 human kinases (Homo sapiens, UniProt Q16832), sequence (Q16832 22-855): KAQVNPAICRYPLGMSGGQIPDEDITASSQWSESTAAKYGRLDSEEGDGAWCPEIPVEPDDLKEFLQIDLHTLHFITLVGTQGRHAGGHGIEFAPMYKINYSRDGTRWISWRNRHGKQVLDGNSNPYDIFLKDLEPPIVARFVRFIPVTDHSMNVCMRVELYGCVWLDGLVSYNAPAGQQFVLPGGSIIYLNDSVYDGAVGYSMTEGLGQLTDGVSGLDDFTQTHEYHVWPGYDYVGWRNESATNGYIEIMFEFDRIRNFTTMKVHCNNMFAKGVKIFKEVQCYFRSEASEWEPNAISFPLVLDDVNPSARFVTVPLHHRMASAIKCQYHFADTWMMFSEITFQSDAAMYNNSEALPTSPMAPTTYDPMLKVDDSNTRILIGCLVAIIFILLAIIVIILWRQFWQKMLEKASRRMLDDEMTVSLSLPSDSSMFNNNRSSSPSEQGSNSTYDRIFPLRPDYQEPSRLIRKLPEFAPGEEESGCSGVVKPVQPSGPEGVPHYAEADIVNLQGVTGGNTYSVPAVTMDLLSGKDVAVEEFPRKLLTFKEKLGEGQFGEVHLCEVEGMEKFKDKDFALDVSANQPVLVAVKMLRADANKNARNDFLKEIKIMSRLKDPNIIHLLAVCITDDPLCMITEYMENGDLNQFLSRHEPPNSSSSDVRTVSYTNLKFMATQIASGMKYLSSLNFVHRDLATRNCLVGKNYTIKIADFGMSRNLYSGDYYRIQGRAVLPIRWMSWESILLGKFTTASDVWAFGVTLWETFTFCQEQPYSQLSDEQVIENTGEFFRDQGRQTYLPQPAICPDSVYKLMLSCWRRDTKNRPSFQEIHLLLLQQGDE
266 human kinases (Homo sapiens, UniProt O75914), sequence (O75914 whole entry): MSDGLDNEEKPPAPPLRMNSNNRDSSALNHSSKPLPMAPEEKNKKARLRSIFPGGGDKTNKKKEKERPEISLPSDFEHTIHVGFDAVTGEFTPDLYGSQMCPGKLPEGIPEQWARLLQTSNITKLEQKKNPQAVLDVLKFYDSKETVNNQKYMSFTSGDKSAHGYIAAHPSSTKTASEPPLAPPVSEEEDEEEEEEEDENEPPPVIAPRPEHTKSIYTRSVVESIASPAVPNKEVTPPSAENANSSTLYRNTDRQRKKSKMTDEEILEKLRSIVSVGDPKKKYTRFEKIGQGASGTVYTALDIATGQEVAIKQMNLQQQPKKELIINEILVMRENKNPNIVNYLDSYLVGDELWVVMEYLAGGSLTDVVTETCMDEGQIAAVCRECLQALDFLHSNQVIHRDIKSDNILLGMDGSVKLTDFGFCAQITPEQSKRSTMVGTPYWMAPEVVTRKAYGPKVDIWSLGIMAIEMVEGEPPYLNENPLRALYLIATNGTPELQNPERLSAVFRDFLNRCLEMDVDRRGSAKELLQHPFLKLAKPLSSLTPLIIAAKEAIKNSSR

As for “YARAAARQARAKALNRQLGVA (mammal) [MMI-0200]”, the “% activity” value in the test with 266 human kinases [1] was determined as 50%.
As for “HRRIKAWLKKIKALARQLGVAA (mammal) [MMI-0500]”, the “% activity” value is recorded as 60% in the test with 266 human kinases [2]; 198% with 266 human kinases [3]; 23% in the test with 266 human kinases [4]; 2% in the test with 266 human kinases [5]; 47% in the test with 266 human kinases [6]; 24% with 266 human kinases [7]. For the same sequence, the results for the “% activity” value with 266 human kinases [8] and with 266 human kinases [9] were 12% and 79%, respectively.
